These results are taken from patent US20250092156A1.

In the assay the target is FLAG-tagged WT RPTPα (WT-RPTPA, NM 008980.2, C-terminal FLAG) (mouse) (UniProt P18052). Briefly: FLIM-FRET, anti-HA A488 donor with anti-FLAG A568 acceptor; unquenched donor around 2.4 ns.
FLAG-tagged WT RPTPα (WT-RPTPA, NM 008980.2, C-terminal FLAG) (mouse), sequence (P18052 20-829 limits assumed): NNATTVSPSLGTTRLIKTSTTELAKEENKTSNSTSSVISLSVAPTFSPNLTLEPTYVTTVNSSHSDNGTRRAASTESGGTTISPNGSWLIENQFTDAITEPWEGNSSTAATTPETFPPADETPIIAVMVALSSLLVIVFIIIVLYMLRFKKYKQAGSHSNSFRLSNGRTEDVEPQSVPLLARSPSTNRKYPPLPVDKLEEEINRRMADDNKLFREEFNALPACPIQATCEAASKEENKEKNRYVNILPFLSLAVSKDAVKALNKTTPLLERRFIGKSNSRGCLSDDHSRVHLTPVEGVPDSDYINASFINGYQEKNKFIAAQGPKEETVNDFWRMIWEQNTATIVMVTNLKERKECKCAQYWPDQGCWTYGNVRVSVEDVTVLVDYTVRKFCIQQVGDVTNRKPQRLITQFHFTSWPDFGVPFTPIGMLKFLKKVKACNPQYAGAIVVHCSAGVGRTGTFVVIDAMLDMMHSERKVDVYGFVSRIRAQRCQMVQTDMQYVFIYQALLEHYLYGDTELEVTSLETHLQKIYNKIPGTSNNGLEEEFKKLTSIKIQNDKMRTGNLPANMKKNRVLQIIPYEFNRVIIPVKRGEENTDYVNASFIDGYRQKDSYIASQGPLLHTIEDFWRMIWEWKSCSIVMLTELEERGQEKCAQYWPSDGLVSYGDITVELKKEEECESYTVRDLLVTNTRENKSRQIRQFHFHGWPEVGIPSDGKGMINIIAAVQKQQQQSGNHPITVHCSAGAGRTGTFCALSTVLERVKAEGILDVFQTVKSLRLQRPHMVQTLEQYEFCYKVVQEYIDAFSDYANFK

HA-tagged WT RPTPα (WT-RPTPA, NM 008980.2, C-terminal HA), sequence (P18052 20-829): as the sequence (P18052 20-829 limits assumed) above

On to “HA-tagged WT RPTPα (WT-RPTPA, NM 008980.2, C-terminal HA) (from UniProt P18052 20-829) (receptor)”, for which the donor fluorescence lifetime of quenched (H-FRET) population was found to be 1.15 ns.
